Reference: patent US20240417707

What was measured:
Assay in all cases: cell_activity
[1] = system: Nme2-ABE8e-i1 (Neisseria meningitidis)
[2] = system: Nme2-ABE8e-nt (Neisseria meningitidis)
[3] = system: Nme2-ABE8e-i1 V106W V106W (in TadA8e) (Neisseria meningitidis)
[4] = A6 editing, mouse liver in vivo, N4CC PAM
[5] = up to, off-target A-to-G, mouse liver

| Substance | activity [1, 4] [%] | activity [2, 4] [%] | activity [3, 4] [%] | activity [1, 5] [%] | activity ([2]; off-target A-to-G, mouse liver) [%] | activity [3, 5] [%] |
| --- | --- | --- | --- | --- | --- | --- |
| Rosa26 sgRNA ; Rosa26 target | 49 | 34 | 46 | – | – | – |
| Rosa26 sgRNA ; Rosa26-OT1 off-target | – | – | – | 7 | 0.2 | 5 |
